From paper PMC12521514
One block for each molecule: values may come before it.

Assays:
[1] = target: ClpP-N12A (Staphylococcus aureus) (UniProt Q2G036); experiment: negative stain EM
[2] = target: T1, Staphylococcus aureus ClpP wild type (Staphylococcus aureus), Q2G036; conditions: remark: other sources report otherwise
T1 chain: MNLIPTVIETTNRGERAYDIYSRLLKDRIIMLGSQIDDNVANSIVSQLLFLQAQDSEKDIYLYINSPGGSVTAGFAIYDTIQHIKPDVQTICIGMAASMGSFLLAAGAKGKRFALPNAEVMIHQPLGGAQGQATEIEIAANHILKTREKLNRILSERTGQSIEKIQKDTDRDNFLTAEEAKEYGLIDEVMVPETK

Molecule: ClpP-N12A (from UniProt Q2G036) (enzyme)
stoichiometry N [1]: 14

stoichiometry N [2]: 14
B1: Staphylococcus aureus ClpP wild type, Q2G036 1-195 (enzyme)
chain: T1 chain
